Assay results published in patent US20050182242A1, “Global analysis of protein activities using proteome chips” (priority 2001, published 2005).

Experiments:
PI(3,4,5)P3 liposomes = test: Yeast proteome chip probed with PI(3,4,5)P3 liposomes; conditions: liposome binding signal on yeast proteome chip, Cy3-streptavidin detection
Text: (§1) To identify PI-binding proteins in yeast, liposomes were used as probes because the liposome provides the most relevant physiological condition to assay the interactors. Six types of liposomes were used. Each contains phosphatidylcholine (“PC”) with 1% (w/w) N-(biotinoyl)-1,2-dihexadecanoyl-sn-glycero-3-phosphoethanolamine, triethylammonium salt (biotin DHPE). The biotinylated lipid serves as a label that can be detected by Cy3-streptavidin (21). In addition to PC, the five other liposomes contain either 5% (w/w) PI(3)P, PI(4)P, PI(3,4)P2, PI(4,5)P2, or PI(3,4,5)P3 (FIG. 3A).
(§2) The protein-liposome interaction was assayed as follows. Appropriate amounts of each lipid in chloroform were mixed and dried under nitrogen. The lipid mixture was resuspended in TBS buffer by vortexing. The liposomes were created by sonication. Blocked proteome chips were washed three to five times in PBS buffer, and the extra liquid on the glass surface was removed by tapping the slides vertically on a KIMWIPE™. 200 μl of liposome solution was added to the proteome chip and immediately covered by a hydrophobic plastic cover slip (GRACE BIO-LAB™, USA). After trapped air bubbles were removed, the chip was incubated in a humidity chamber at RT for one hour. To remove the cover slip, the chip was immersed into large volume of PBS buffer (50 ml), so that the slip would float away. The chip was then moved to a second PBS bath (>50 ml) and washed 3×5 min with shaking at RT. After removing extra liquid on the surface of the chip, about 100 μl of Cy3 or Cy5 conjugated streptavidin (PIERCE™, USA; 1:2000 to 1:4000 dilution) was added to the surface and covered by a hydrophobic plastic cover slip (GRACE BIO-LABS™, USA). The chip was incubated for greater than 30 min in the dark at RT. The chip was then washed as described above. To completely remove the liquid on the chip, the chip was spun to dryness at 1500-2000 rpm for 5-10 min at RT.
(§3) • 1. S. Fields, Y. Kohara, D. J. Lockhart, Proc. Natl. Acad. Sci. 96, 8825 (1999); A. Goffeau et al., Science 274, 563 (1996). • 2 P. Ross-Macdonald et al., Nature 402, 413 (1999); J. L., DeRisi, V. R. Iyer, P. O. Brown, Science 278, 680 (1997); E. A. Winzeler et al., Science 285, 901 (1999). P. Uetz et al., Nature 403, 623 (2000); T. Ito et al., Proc. Natl. Acad. Sci. USA. 97, 1143 (2000) • 3 H. Zhu, M. Snyder, Curr. Opin. Chem. Biol. 5, 40 (2001). • 4 M. R. Martzen et al., Science 286, 1153 (1999). • 5 H. Zhu et al., Nat. Genet. 26, 283 (2000). • 6 G. MacBeath, S. L. Schreiber, Science 289, 1760 (2000). • 7 A. Caveman, J. Cell Sci. 113, 3543 (2000). • 8 P. Arenkov et al., Anal. Biochem 278, 123 (2000). • 9 D. A. Mitchell, T. K. Marshall, R. J. Deschenes, Yeast 9, 715 (1993). The expression vector pEGH was created by inserting an RGS-HisX6 epitope tag between the GST gene and the polycloning site of pEG(KG). The yeast ORFs were cloned using the strategy described previously (5), except every step was done in a 96-well format. Plasmid DNAs confirmed by DNA sequencing were reintroduced into both yeast (Y258) and E. coli (DH5a). […] 0.1 mM calcium was present in buffers in all subsequent steps. The chip was washed three times with PBS at RT. Cy3-conjugated streptavidin (Jackson IR, USA) (1:5000 dilution) was added to the chip and incubated for 30 min at RT. After extensive washing, the chip was spun dry and scanned using a microarray scanner; the data was subsequently acquired with the GENEPIX™ array densitometry software (Axon, USA). • 12 S. S. Hook, A. R. Means, Annu. Rev. Pharmacol. Toxicol.41, 471 (2001). • 13 M. S. Cyert, R. Kunisawa, D. Kaim, J. Thorner, Proc. Natl. Acad. Sci. USA 88, 7376 (1991). • 14 D. A. Stirling, K. A. Welch, M. J. Stark, EMBO J. 13, 4329 (1994). • 15 F. Bohl, Kruse, EMBO J. 19, 5514 (2000); E. Bertrand et al., Mol. Cell 2, 437 (1998). • 16 D. C. Winter, E. Y. Choe, R. Li, Proc. Nat. Acad Sci. USA 96, 7288 (1999). • 17 C.

PI(3,4)P2 liposomes = test: Yeast proteome chip probed with PI(3,4)P2 liposomes; conditions: liposome binding signal on yeast proteome chip, Cy3-streptavidin detection
Text: as §1, §2, §3

PI(4,5)P2 liposomes = test: Yeast proteome chip probed with PI(4,5)P2 liposomes; conditions: liposome binding signal on yeast proteome chip, Cy3-streptavidin detection
Text: as §1, §2, §3

PI(4)P liposomes = test: Yeast proteome chip probed with PI(4)P liposomes; conditions: liposome binding signal on yeast proteome chip, Cy3-streptavidin detection
Text: as §1, §2
as §3, with “Pharmacol. Toxicol.41, 471 (2001). • 13 M. S. Cyert, R. Kunisawa, D. Kaim, J. Thorner, Proc. Natl. Acad. Sci. USA 88, 7376 (1991). • 14 D. A. Stirling, K. A. Welch, M. J. Stark, EMBO J. 13, 4329 (1994). • 15 F. Bohl, Kruse, EMBO J. 19, 5514 (2000); E. Bertrand et al., Mol. Cell 2, 437 (1998). • 16 D. C. Winter, E. Y. Choe, R. Li, Proc. Nat. Acad Sci. USA 96, 7288 (1999). • 17 C.” left out

[1] = tested on: phosphatidylcholine (PC) liposomes; test: Yeast proteome chip probed with PC liposomes; conditions: liposome binding signal on yeast proteome chip, Cy3-streptavidin detection
Text: as §1, §2
as §3, with “Pharmacol. Toxicol.41, 471 (2001). • 13 M. S. Cyert, R. Kunisawa, D. Kaim, J. Thorner, Proc. Natl. Acad. Sci. USA 88, 7376 (1991). • 14 D. A. Stirling, K. A. Welch, M. J. Stark, EMBO J. 13, 4329 (1994). • 15 F. Bohl, Kruse, EMBO J. 19, 5514 (2000); E. Bertrand et al., Mol. Cell 2, 437 (1998). • 16 D. C. Winter, E. Y. Choe, R. Li, Proc. Nat. Acad Sci. USA 96, 7288 (1999). • 17 C.” left out

PI(3)P liposomes = test: Yeast proteome chip probed with PI(3)P liposomes; conditions: liposome binding signal on yeast proteome chip, Cy3-streptavidin detection
Text: as §1
The protein-liposome interaction was assayed as follows. Appropriate amounts of each lipid in chloroform were mixed and dried under nitrogen. The lipid mixture was resuspended in TBS buffer by vortexing. The liposomes were created by sonication. Blocked proteome chips were washed three to five times in PBS buffer, and the extra liquid on the glass surface was removed by tapping the slides vertically on a KIMWIPE™. 200 μl of liposome solution was added to the proteome chip and immediately covered by a hydrophobic plastic cover slip (GRACE BIO-LAB™, USA). After trapped air bubbles were removed, the chip was incubated in a humidity chamber at RT for one hour. To remove the cover slip, the chip was immersed into large volume of PBS buffer (50 ml), so that the slip would float away. […]

six different liposomes = test: Reverse membrane assay: proteins spotted on nitrocellulose probed with six liposomes; type: binding; conditions: HRP-conjugated streptavidin
Method: B. A reverse assay was carried out to test for protein-lipid interactions. The proteins were prepared and spotted onto nitrocellulose filters in a dilution series and probed with the six different liposomes. As a control, the six liposomes were also added to the BSA-blocked membrane. After extensive washing, the bound liposomes were detected using an HRP-conjugated streptavidin and an ECL kit.
C. Linear correlation between the binding signals and the amounts of Rim15p in a membrane assay. When liposome-binding signals of Rim15p from the membrane assay (FIG. 4B) were plotted against the concentration gradient of the spotted Rim15p, the binding signals of PI(4)P, PI(3,4)P2, PI(3)P, and PI(4,5)P2 correlated linearly with the amounts of Rim15p.
Therefore, six proteins, i.e., Rim15p, Eno2p, Hxk1p, Sps1p, Yg1059wp, and Gcn2p, were further tested for phosphoinositol binding using two types of standard assays (Williamson, 2000, Nat. Struct Biol. 7(10):834-7). For Rim15p, Eno2p, and Hxk1p, PI(4,5)P2 liposomes were first adhered to a nitrocellulose membrane, which was then blocked by BSA; different amounts of the GST fusion proteins and a GST control were used to probe the membrane, and bound proteins were detected using anti-GST antibodies. […] We also carried out the reverse assay for four GST fusion proteins, Rim15p, Sps1p, Yg1059wp, and Gcn2p (Guerra et al., 2000, Biosci. Rep. 20: 41). Different amounts of these purified proteins were spotted onto nitrocellulose filters and probed with the six different liposomes (FIG. 5B). The bound liposomes were detected using a horseradish peroxidase (“HRP”)-conjugated streptavidin.

calmodulin = molecular target: T1, calmodulin (Homo sapiens, UniProt P0DP23); test: Yeast proteome chip probed with biotinylated calmodulin; type: binding; conditions: biotinylated calmodulin in the presence of calcium
T1 construct: purchased CalBiochem, USA
Text: To test for protein-protein interactions, the yeast proteome was probed with calmodulin (11). Calmodulin is a highly conserved calcium-binding protein involved in many calcium-regulated cellular processes and has many known physical partners (Hook et al., 2001, Annu. Rev. Pharmacol. Toxicol. 41:471). The calmodulin probe was biotinylated, and bound probe was detected using Cy3-labeled streptavidin. As a control, the yeast proteome was probed with Cy3-labeled streptavidin alone.
Generally, protein-protein interactions can be assayed as follows. Blocked proteome chips are washed three to five times in PBS buffer, and the extra liquid on the glass surface is removed by tapping the slides vertically on a KIMWIPE™. 200 ∞l of biotinylated protein probe is added to the proteome chip and immediately covered by a hydrophobic plastic cover slip (GRACE BIO-LABS™, USA). After trapped air bubbles are removed, the chip is incubated in a humidity chamber at room temperature (RT) for one hour. To remove the cover slip, the chip is immersed into large volume of PBS buffer (>50 ml), and the slip should float away. The chip is then moved to a second PBS bath (>50 ml) and washed 3×5 min with shaking at RT. […]

| Substance | PI(3, 4, 5)P3 (PI(3,4,5)P3 liposomes) | PI(3, 4)P2 (PI(3,4)P2 liposomes) | PI(4, 5)P2 (PI(4,5)P2 liposomes) | PI(4)P (PI(4)P liposomes) | PC [1] | PI(3)P (PI(3)P liposomes) | liposome binding in reverse membrane assay (six different liposomes) | calmodulin binding (calmodulin) |
| --- | --- | --- | --- | --- | --- | --- | --- | --- |
| SDS3: yeast GST-HisX6 fusion protein on proteome chip | 9.67 | 3.45 | 4.35 | 11.76 | – | – | – | – |
| SSB1: yeast GST-HisX6 fusion protein on proteome chip | 4.27 | 6.28 | 1.31 | 16.98 | 12.91 | – | – | – |
| GCN2: yeast GST-HisX6 fusion protein on proteome chip | 975.60 | 232.01 | 505.60 | 1356.97 | 1087.04 | 26.50 | bound strongest to PI(3)P and PI(4)P and PI(3,4)P2 | – |
| RRP5: yeast GST-HisX6 fusion protein on proteome chip | 21.26 | 22.60 | 73.38 | 60.31 | 58.11 | – | – | – |
| PET9: yeast GST-HisX6 fusion protein on proteome chip | 17.66 | −5.81 | 26.13 | – | 14.97 | – | – | – |
| Arc35p: component of the Arp2/3 actin-organizing complex | – | – | – | – | – | – | – | identified |
